Patent publication US20080194020A1, “Methods For Producing Dendritic Cells That Have Acquired Ctl-Inducing Ability” (Medical and Biological Laboratories Co., Ltd., priority 2004, published 2008)

Columns and labels:
[1] = tested on: DC2.4 cells; assay: MHC class I cross-presentation by DC2.4 cells to OT-I CD8+ T cells (IL-2 ELISA); format: cell-based, mouse; settings: for antigenicity for stimulation of CD8+ OT-I T cells: FIG. 8a, OVA compared with bOVA
Source text: Whether knock-down of cellular components involved in ERAD decreases the cross-presentation of exogenous OVA antigen was examined using a system for evaluating the level of antigen presentation, which uses naive CD8^+ T cells from OT-I mice and DC2.4 cells. The DC2.4 cells used as a model of dendritic cells are of the H-2Kb mouse MHC class I haplotype. OT-I (H-2Kb) mice are transgenic mice expressing a T cell receptor (TCRα and β) that recognizes an antigenic peptide (SIINFEKL) (SEQ ID NO: 15) derived from OVA presented on the H-2Kb molecules. The CD8^+ cells of OT-I mice are activated when they recognize OVA peptides presented by BMDCs derived from H-2Kb mice or by DC2.4 cells. When OVA or bOVA is incubated with and affixed onto DC2.4 cells and the cells are further incubated with naive CD8^+ T cells of OT-I mice, the amount of IL-2 produced by OT-I CD8^+ T cells serves as an index of T-cell stimulation as a result of OVA antigen presented by DC2.4 cells.
Parental or knocked-down DC2.4 cells were pre-incubated in a culture medium supplemented with 50 μg mL^−1 polymyxin B for 30 minutes in the presence or absence of lactacystin or MG-132, and incubated with OVA (250 μg mL^−1) or SIINFEKL peptides (10 ng mL^−1) for six hours. The cells were washed, fixed with 1% paraformaldehyde, and aliquoted into microtiter plates (5×10^4 per well). 5×10^4 CD8^+ T cells purified from splenocytes of OT-1 mice using magnetic beads were added to each well and after a 24-hour incubation, the IL-2 secretion was measured by ELISA (BD Biosciences) in triplicate.
DC2.4 cells were incubated with OVA (0, 50, or 250 μg/mL) in RPMI1640/10c% FCS for six hours at 37° C., in the presence or absence of pig-derived HSP90 (10 μg/mL). After washing away the antigen and HSP, OT-I CD8^+ T cells were added, cells were cultured overnight at 37° C., and the amount of IL-2 comprised in the supernatant was measured by the ELISA method.
The timing of the addition of HSP90 (10 μg/mL) and OVA (250 μg/mL) to DC2.4 cells was varied, and the effect on class I antigen presentation was observed. (i) HSP90 was added first, DC2.4 cells were washed, and then OVA was added. (ii) HSP90 and OVA were added simultaneously to DC2.4 cells. (iii) OVA was added first, and after washing DC2.4 cells, HSP90 was added. The results obtained under these three conditions were compared. […]
Under condition (i), HSP90 was added to DC2.4 cells, the cells were cultured for 30 minutes and then washed to remove HSP90. […] DC2.4 cells activated with OVA by the above procedure were plated in a 96-well plate, OT-I mouse-derived CD8^+ T cells were added to this, and after culturing overnight, the amount of IL-2 released into the supernatant was measured by ELISA. […]

[2] = tested on: DC2.4 cells; assay: Polyubiquitination of antigenic protein taken up by DC2.4 cells (SDS-PAGE, Western blot with anti-polyubiquitin antibody); format: cell-based, mouse
Procedure: There are reports that when the KDEL sequence (Lys-Asp-Glu-Leu) (SEQ ID NO: 3), an endoplasmic reticulum localization sequence, is added to the carboxyl terminus of a protein localized in the ER lumen, the protein is repeatedly transported between the ER and Golgi apparatus, and ERAD of that protein is promoted. Therefore, DC2.4 cells were made to take up OVA with KDEL (SEQ ID NO: 3) added to its C-terminus, and OVA that was polyubiquitinated after uptake was observed by SDS-PAGE and Western blotting. OVA to which a KDEL sequence (SEQ ID NO: 3) was added was constructed and expressed as follows: using a plasmid comprising a DNA sequence encoding OVA as a template, PCR was performed using oligo-1 (SEQ ID NO: 10) and oligo-2 (SEQ ID NO: 11) as primers. The amplified PCR product of approximately 1100 bp was introduced into a pCR-Blunt vector (Invitrogen) to obtain vector-1. Oligo-3 (SEQ ID NO: 12) and oligo-4 (SEQ ID NO: 13) were annealed, and the obtained gene fragment of approximately 100 bp was introduced into the pCR-Blunt vector to obtain vector-2. Vector-2 was digested with SpeI, the obtained gene fragment of approximately 130 bp was introduced into vector-1 that had been digested with NheI to obtain vector-3. An approximately 1250-bp gene fragment (OVA-KDEL) obtained when vector-3 was digested with BamHI/SpeI was introduced into a vector for gene expression, and then expressed. […]

[3] = tested on: DC2.4 cells; assay: MHC class II antigen presentation by DC2.4 cells to OT-II CD4+ T cells (IL-2 production); format: cell-based, mouse; settings: FIG. 9 control: DC2.4 cells cultured with OVA, no NH4Cl
Procedure: DC2.4 cells pretreated in the presence of NH4Cl were cultured with OVA, and then the stimulation of OT-I CD8^+ T cells in response to MHC class I antigen presentation (circles) and stimulation of OT-II CD4^+ T cells in response to MHC class II antigen presentation (triangles) was determined by measuring IL-2 production levels. IL-2 production level in the presence of NH4Cl was expressed as a ratio relative to the control (IL-2 production was 700 pg/mL relative to OT-I, and 20 pg mL relative to OT-II).

[4] = tested on: DC2.4 cells
Procedure: Intracellular localization of foreign antigens was examined by cell fractionation methods. Chicken ovalbumin (OVA) was used as an antigen model, and DC2.4 (haplotype H-2Kb), a cultured cell line of mouse dendritic cells, was used as a model for dendritic cells. […] BMDCs with a haplotype of H-2Kb, the same as that of DC2.4, were used as the control. BMDCs were induced from the bone marrow cells of C57BL/6 mice (SLC) in RPMI-1640 supplemented with 5% FCS using 5 ng/mL GM-CSF (MEL), and those cells purified by magnetic beads after five days of culturing were used.
DC2.4 cells made to take up bOVA antigens were suspended in 10 mM Tris-HCl (pH7.4) containing 250 mM sucrose, this was homogenized using glass beads, centrifuged for 30 minutes at 250,000×g, and then fractionated. The supernatant was used as the soluble fraction; the precipitates were suspended in the same buffer as described above and used as the microsomal fraction. A fixed amount was incubated in the presence or absence of 1% TritonX-100, and together with or without 100 μg mL^−1 trypsin. Before collecting bOVA, soybean trypsin inhibitor (Sigma) was added at 500 μg mL^−1.

[5] = tested on: DC2.4 cells; assay: Uptake of antigenic protein into DC2.4 cells; format: cell-based, mouse; settings: CHIP-knocked-down DC2.4 cells
Procedure: Next, DC2.4 cells were incubated for a set amount of time with OVA in the presence or absence of lactacystin (LC), and OVA taken up into the cells was measured. OVA taken up into cells in the presence or absence of Hsp90 was measured similarly.

B1: OVA-KDEL: OVA with the endoplasmic reticulum localization sequence KDEL added to its C-terminus, SEQ ID NO: 14 (protein)
chain: MGSIGAASMEFCFDVFKELKVHHANENIFYCPIAIMSALAMVYLGAKDSTRTQINKVVRFDKLPGFGDSIEAQCGTSVNVHSSLRDILNQITKPNDVYSFSLASRLYAEERYPILPEYLQCVKELYRGGLEPINFQTAADQARELINSWVESQTNGIIRNVLQPSSVDSQTAMVLVNAIVFKGLWEKAFKDEDTQAMPFRVTEQESKPVQMMYQIGLFRVASMASEKMKILELPFASGTMSMLVLLPDEVSGLEQLESIINFEKLTEWTSSNVMEERKIKVYLPRMKMEEKYNLTSVLMAMGITDVFSSSANLSGISSAESLKISQAVHAAHAEINEAGREVVGSAEAGVDAASVSEEFRADHPFLFCIKHIATNAVLFFGRCVSPASAEDYEYPSRSNGTKNNTSQASKDEL
antigen presentation level compared to OVA (OT-I CD8+ T cells) ([1]; DC2.4 cells, data not shown): clearly found to be stronger
polyubiquitination of the substrate compared to OVA ([2]; DC2.4 cells made to take up OVA with KDEL added to its C-terminus): significantly promoted polyubiquitination

B2: OVA: Chicken ovalbumin used as an antigen model (protein)
chain: GSIGAASMEFCFDVFKELKVHHANENIFYCPIAIMSALAMVYLGAKDSTRTQINKVVRFDKLPGFGDSIEAQCGTSVNVHSSLRDILNQITKPNDVYSFSLASRLYAEERYPILPEYLQCVKELYRGGLEPINFQTAADQARELINSWVESQTNGIIRNVLQPSSVDSQTAMVLVNAIVFKGLWEKAFKDEDTQAMPFRVTEQESKPVQMMYQIGLFRVASMASEKMKILELPFASGTMSMLVLLPDEVSGLEQLESIINFEKLTEWTSSNVMEERKIKVYLPRMKMEEKYNLTSVLMAMGITDVFSSSANLSGISSAESLKISQAVHAAHAEINEAGREVVGSAEAGVDAASVSEEFRADHPFLFCIKHIATNAVLFFGRCVSP
antigenicity for stimulation of CD8+ OT-I T cells [1]: equally antigenic
IL-2 production, OT-I CD8+ T cells ([1]; FIG. 9 control: DC2.4 cells cultured with OVA, no NH4Cl): 700 pg/mL
IL-2 production, OT-II CD4+ T cells [3]: 20 pg·mL

B3: bOVA: OVA antigen recovered with streptavidin beads (biotin-labeled samples) (protein)
chain: GSIGAASMEFCFDVFKELKVHHANENIFYCPIAIMSALAMVYLGAKDSTRTQINKVVRFDKLPGFGDSIEAQCGTSVNVHSSLRDILNQITKPNDVYSFSLASRLYAEERYPILPEYLQCVKELYRGGLEPINFQTAADQARELINSWVESQTNGIIRNVLQPSSVDSQTAMVLVNAIVFKGLWEKAFKDEDTQAMPFRVTEQESKPVQMMYQIGLFRVASMASEKMKILELPFASGTMSMLVLLPDEVSGLEQLESIINFEKLTEWTSSNVMEERKIKVYLPRMKMEEKYNLTSVLMAMGITDVFSSSANLSGISSAESLKISQAVHAAHAEINEAGREVVGSAEAGVDAASVSEEFRADHPFLFCIKHIATNAVLFFGRCVSP
antigenicity for stimulation of CD8+ OT-I T cells [1]: equally antigenic
polyubiquitination of bOVA ([2]; CHIP-knocked-down DC2.4 cells): 34%
share of bOVA taken up by cells recovered as trypsin-resistant bOVA from the microsomal fraction [4]: ≥ 70%
uptake of bOVA relative to parental DC2.4 cells [5]: about 70%
